Measured values as given in patent US20200155655.

Target: Vps34 (vacuolar protein sorting 34), endogenous in MEF cell lysate (UniProt Q6PF93)
Sequence (Q6PF93 whole entry): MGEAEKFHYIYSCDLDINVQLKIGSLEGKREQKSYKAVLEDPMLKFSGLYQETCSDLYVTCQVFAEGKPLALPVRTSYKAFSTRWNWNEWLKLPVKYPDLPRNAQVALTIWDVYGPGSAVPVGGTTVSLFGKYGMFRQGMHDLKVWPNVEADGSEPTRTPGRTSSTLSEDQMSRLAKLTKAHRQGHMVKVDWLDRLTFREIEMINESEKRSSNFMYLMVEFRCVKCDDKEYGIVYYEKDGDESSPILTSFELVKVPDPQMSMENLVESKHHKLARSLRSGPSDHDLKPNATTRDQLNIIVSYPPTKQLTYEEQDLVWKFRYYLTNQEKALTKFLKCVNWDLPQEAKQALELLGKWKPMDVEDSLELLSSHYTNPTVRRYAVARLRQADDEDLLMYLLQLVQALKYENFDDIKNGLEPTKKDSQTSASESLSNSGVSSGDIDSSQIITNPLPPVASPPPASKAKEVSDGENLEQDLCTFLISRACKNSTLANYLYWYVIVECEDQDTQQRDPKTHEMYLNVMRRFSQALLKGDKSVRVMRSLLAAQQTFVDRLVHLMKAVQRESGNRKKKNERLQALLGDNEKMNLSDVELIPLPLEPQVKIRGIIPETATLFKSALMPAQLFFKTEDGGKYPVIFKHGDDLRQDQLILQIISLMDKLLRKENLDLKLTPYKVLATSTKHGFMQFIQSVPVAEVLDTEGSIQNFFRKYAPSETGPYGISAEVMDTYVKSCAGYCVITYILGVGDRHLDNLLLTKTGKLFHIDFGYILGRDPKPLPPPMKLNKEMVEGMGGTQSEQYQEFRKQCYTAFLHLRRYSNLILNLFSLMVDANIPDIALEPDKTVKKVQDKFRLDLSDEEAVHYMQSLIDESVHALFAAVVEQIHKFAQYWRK

Chain of purified GST-LRS protein (chain, as listed by the source): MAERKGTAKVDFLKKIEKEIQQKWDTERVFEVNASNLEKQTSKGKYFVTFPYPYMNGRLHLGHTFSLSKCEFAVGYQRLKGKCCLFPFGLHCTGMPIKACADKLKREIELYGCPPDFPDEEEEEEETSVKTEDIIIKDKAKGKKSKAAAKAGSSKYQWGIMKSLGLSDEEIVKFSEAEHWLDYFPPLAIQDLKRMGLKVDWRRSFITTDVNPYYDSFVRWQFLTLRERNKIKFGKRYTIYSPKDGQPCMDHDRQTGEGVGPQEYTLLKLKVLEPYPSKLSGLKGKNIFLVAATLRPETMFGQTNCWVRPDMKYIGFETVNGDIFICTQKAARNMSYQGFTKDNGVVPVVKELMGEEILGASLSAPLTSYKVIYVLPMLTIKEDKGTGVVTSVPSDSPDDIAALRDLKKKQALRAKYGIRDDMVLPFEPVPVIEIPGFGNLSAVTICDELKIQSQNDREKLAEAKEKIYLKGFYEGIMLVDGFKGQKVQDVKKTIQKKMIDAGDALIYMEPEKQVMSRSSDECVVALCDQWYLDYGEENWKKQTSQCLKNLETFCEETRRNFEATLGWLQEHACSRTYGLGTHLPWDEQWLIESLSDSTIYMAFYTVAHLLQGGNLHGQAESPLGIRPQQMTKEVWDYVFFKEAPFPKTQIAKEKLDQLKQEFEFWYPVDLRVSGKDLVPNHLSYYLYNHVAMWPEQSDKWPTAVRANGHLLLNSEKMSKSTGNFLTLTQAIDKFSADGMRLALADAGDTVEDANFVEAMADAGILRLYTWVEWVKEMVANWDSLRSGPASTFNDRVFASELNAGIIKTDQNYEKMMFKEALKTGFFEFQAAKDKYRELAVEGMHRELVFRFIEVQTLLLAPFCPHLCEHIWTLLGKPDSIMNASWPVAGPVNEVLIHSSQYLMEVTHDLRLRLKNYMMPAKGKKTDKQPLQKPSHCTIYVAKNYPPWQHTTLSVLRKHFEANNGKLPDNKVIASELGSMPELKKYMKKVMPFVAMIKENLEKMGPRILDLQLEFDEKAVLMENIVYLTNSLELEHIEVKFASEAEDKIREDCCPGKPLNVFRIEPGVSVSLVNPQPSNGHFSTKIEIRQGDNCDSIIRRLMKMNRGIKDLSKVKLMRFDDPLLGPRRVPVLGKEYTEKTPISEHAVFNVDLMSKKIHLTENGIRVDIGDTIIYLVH
Chain of GST-LRS mutation (F50A/Y52A) (chain, as listed by the source F50A Y52A): as the sequence (chain, as listed by the source) above, with F50A, Y52A counted along it

| Substance | activity of Vps34 (in vitro Vps34 lipid kinase assay) | activity of Vps34 (in vitro Vps34 lipid kinase assay), with leucine |
| --- | --- | --- |
| GST-LRS mutation (F50A/Y52A) | LRS mutation (F50A/Y52A) did not induce the activation of Vps34, regardless of the presence or absence of leucine stimulation |  |
| purified GST-LRS protein | the activity of Vps34 was increased by about 3 times compared to the GST control | the activity was further increased by leucine stimulation |
